Where a chain is given by its changes, count along the chain named. Each block holds one binder with its values, some of them ahead of it.
Columns and labels:
Experiment in all cases: cell-based or functional assay
[1] = molecular target: T1, recombinant human IL-4 (human, UniProt P05112 25-153)
T1 sequence (looked up): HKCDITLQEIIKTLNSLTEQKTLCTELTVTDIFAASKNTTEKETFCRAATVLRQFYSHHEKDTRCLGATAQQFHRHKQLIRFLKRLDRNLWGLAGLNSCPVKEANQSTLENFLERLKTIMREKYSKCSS

[2] = molecular target: recombinant human TSLP (glycosylated long form) (human, UniProt Q969D9 29-159)
[3] = molecular target: recombinant human IL-13 (human, UniProt P35225 35-146)
[4] = molecular target: T2, recombinant human IL-4 (human, UniProt P05112 25-153); remark: listed apart in the source
T2 sequence (looked up): T1 sequence (looked up)

[5] = molecular target: recombinant human IL-13 (human, UniProt P35225 35-146); remark: listed apart in the source
[6] = molecular target: T3, human IL-33 mm2 Cys (human, UniProt O95760 112-270, limits assumed)
T3 sequence (looked up): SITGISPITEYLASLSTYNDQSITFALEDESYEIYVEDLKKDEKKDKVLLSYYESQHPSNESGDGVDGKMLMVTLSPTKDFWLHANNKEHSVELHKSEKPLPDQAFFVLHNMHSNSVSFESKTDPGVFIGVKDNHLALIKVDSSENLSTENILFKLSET

[7] = molecular target: T4, recombinant human IL-33 (R&D Systems 3625-IL), reduced with DTT (human, UniProt O95760 112-270, limits assumed)
T4 sequence (looked up): T3 sequence (looked up) with S97C, S116C, S121C, S148C

B1: IL4-0002 (antibody, human IgG1, kappa)
heavy: EVTLRESGPALVKPTQTLTLTCTFSGFSLSNFGEGLSWIRQPPGKGLEWLAHIYWDDDKRYNPSLKSRLTISKDTSRNQVVLTMTNMDPVDTATYYCARRETVFYWYFDVWGQGTTVTVSSASTKGPSVFPLAPSSKSTSGGTAALGCLVKDYFPEPVTVSWNSGALTSGVHTFPAVLQSSGLYSLSSVVTVPSSSLGTQTYICNVNHKPSNTKVDKKVEPKSCDKTHTCPPCPAPEAAGAPSVFLFPPKPKDTLMISRTPEVTCVVVDVSHEDPEVKFNWYVDGVEVHNAKTKPREEQYNSTYRVVSVLTVLHQDWLNGKEYKCKVSNKALPAPIEKTISKAKGQPREPQVYTLPPSREEMTKNQVSLTCLVKGFYPSDIAVEWESNGQPENNYKTTPPVLDSDGSFFLYSKLTVDKSRWQQGNVFSCSVMHEALHNHYTQKSLSLSPGK
light: DIQMTQSPSSLSASVGDRVTITCKASQSVDEDGDSYMNWYQQKPGKAPKLLIYAASNLESGVPSRFSGSGSGTDFTLTISSLQPEDFATYYCQQSNEDPPTFGGGTKVEIKRTVAAPSVFIFPPSDEQLKSGTASVVCLLNNFYPREAKVQWKVDNALQSGNSQESVTEQDSKDSTYSLSSTLTLSKADYEKHKVYACEVTHQGLSSPVTKSFNRGEC
a-hIL-4 bioassay IC50, pM) [1]: 3.42 pM

B2: IL413TSLP-0001 (other)
heavy: B1 heavy with L132E, S187G, S358C, T370S, L372A, Y411V
chain 1: QMQLVESGGGVVQPGRSLRLSCAASGFTFRTYGMHWVRQAPGKGLEWVAVIWYDGSNKHYADSVKGRFTITRDNSKNTLNLQMNSLRAEDTAVYYCARAPQWELVHEAFDIWGQGTMVTVSSGQPKAAPSVTLFPPSSEELQANKATLVCLISDFYPGAVTVAWKADSSPVKAGVETTTPSKQSNNKYAASSYLSLTPEQWKSHRSYSCQVTHEGSTVEKTVAPTECSGGGGSEVQLVESGGGLVQPGGSLRLSCAASGFTFSSYAMSWVRQAPGKGLEWVASISSGDTTYYPDSVKGRFTISRDNAKNSLYLQMNSLRAEDTAVYYCARNEGYYFGLTLWGQGTLVTVSSASTKGPSVFPKAPSSKSTSGGTAALGCLVKDYFPEPVTVSWNSGALTSGVHTFPAVLQSSGLYSLSSSVTVPSSSLGTQTYICNVNHKPSNTKVDKKVEPKSCDKTHTCPPCPAPEAAGAPSVFLFPPKPKDTLMISRTPEVTCVVVDVSHEDPEVKFNWYVDGVEVHNAKTKPREEQYNSTYRVVSVLTVLHQDWLNGKEYKCKVSNKALPAPIEKTISKAKGQPREPQVCTLPPSREEMTKNQVSLWCLVKGFYPSDIAVEWESNGQPENNYKTTPPVLDSDGSFFLYSKLTVDKSRWQQGNVFSCSVMHEALHNHYTQKSLSLSPGK
light 1: B1 light with V137S, S180K
light 2: DIQMTQSPSSLSASVGDRVTITCKASESVDHFGWSLVHWYQQKPGKAPKLLIYRASNLESGVPSRFSGSGSGTDFTLTISSLQPEDFATYYCQQSNEDPWTFGGGTKVEIKRTVAAPSVFIFPPSDEQLKSGTASVSCLLNNFYPREAKVQWKVDNALQSGNSQESVTEQDSKDSTYSLDSTLTLSKADYEKHKVYACEVTHQGLSSPVTKSFNRGEC
chain 2: SYVLTQPPSVSVAPGQTARITCGGNNLGSKSVHWYQQKPGQAPVLVVYDDSDRPSWIPERFSGSNSGNTATLTISRGEAGDEADYYCQVWDSSSDHVVFGGGTKLTVLASTKGPSVFPLAPSSKSTSGGTAALGCLVKDYFPEPVTVSWNSGALTSGVHTFPAVLQSSGLYSLSSVVTVPSSSLGTQTYICNVNHKPSNTKVDKKVEPKSC
a-TSLP TARC bioassay (IC50; pM) [2]: 12.6 pM | a-hIL-13 bioassay (IC50, pM) [3]: 47 pM | a-hIL-4 bioassay IC50, pM) [1]: 7.15 pM

B3: IL413TSLP-1037 (other)
heavy: not shown
chain 1: DIQMTQSPSSLSASVGDRVTITCKASESVDHFGWSLVHWYQQKPGKAPKLLIYRASNLESGVPSRFSGSGSGTDFTLTISSLQPEDFATYYCQQSNEDPWTFGGGTKVEIKRTVAAPSVFIFPPSDEQLKSGTASVVCLLNNFYPREAKVQWKVDNALQSGNSQESVTEQDSKDSTYSLSSTLTLSKADYEKHKVYACEVTHQGLSSPVTKSFNRGECGGGGSEVTLRESGPALVKPTQTLTLTCTFSGFSLSNFGEGLSWIRQPPGKGLEWLAHIYWDDDKRYNPSLKSRLTISKDTSRNQVVLTMTNMDPVDTATYYCARRETVFYWYFDVWGQGTTVTVSSASTKGPSVFPLAPSSKSTSGGTAALGCLVKDYFPEPVTVSWNSGALTSGVHTFPAVLQSSGLYSLSSVVTVPSSSLGTQTYICNVNHKPSNTKVDKKVEPKSCEKTHTCPPCPAPEAAGAPSVFLFPPKPKDTLMISRTPEVTCVVVDVSHEDPEVKFNWYVDGVEVHNAKTKPREEQYNSTYRVVSVLTVLHQDWLNGKEYKCKVSNKALPAPIEKTISKAKGQPREPQVYTLPPSREEMTKNQVSLTCEVKGFYPSDIAVEWESNGQPENNYKTTPPVLDSDGSFFLYSKLTVDKSRWQQGNVFSCSVLHEALHSHYTQKSLSLSPGK
light 1: SYVLTQPPSVSVAPGQTARITCGGNNLGSKSVHWYQQKPGQAPVLVVYDDKDRPSWIPERFSGSNSGNTATLTISRGEAGDEADYYCQVWDKSSDHVVFGGGTKLTVLGQPKAAPSVTLFPPSSEELQANKATLVCLISDFYPGAVTVAWKADSSPVKAGVETTTPSKQSNNKYAASSYLSLTPEQWKSHRSYSCQVTHEGSTVEKTVAPTECS
light 2: B1 light with K24R, D32E, E97K
chain 2: EVQLVESGGGLVQPGGSLRLSCAASGFTFSSYAMSWVRQAPGKGLEWVASISSGDTTYYPDSVKGRFTISRDNAKNSLYLQMNSLRAEDTAVYYCARNEGYYFGLTLWGQGTLVTVSSASTKGPSVFPLAPSSKSTSGGTAALGCLVKDYFPEPVTVSWNSGALTSGVHTFPAVLQSSGLYSLSSVVTVPSSSLGTQTYICNVNHKPSNTKVDKKVEPKSC
IC50 (median), IL-4 induced CD23 expression on human monocytes [4]: 0.0105 nM | IC50 (median), IL-13 induced CD23 expression on human monocytes [5]: 0.0131 nM

B5: IL13-0001 (antibody, human IgG1, kappa, V domains shown)
VH: EVQLVESGGGLVQPGGSLRLSCAASGFTFSSYAMSWVRQAPGKGLEWVASISSGDTTYYPDSVKGRFTISRDNAKNSLYLQMNSLRAEDTAVYYCARNEGYYFGLTLWGQGTLVTVSS
VL: DIQMTQSPSSLSASVGDRVTITCKASESVDHFGWSLVHWYQQKPGKAPKLLIYRASNLESGVPSRFSGSGSGTDFTLTISSLQPEDFATYYCQQSNEDPWTFGGGTKVEIKR
a-hIL-13 bioassay (IC50, pM) [3]: 4.83 pM

Second part, the binder after the results:

IC50 (median), IL-4 induced CD23 expression on human monocytes [4]: 0.0128 nM | IC50 (median), IL-13 induced CD23 expression on human monocytes [5]: 0.0129 nM
B4: IL413TSLP-1028 (other)
heavy: not shown
chain 1: B3 chain 1
light 1: B3 light 1 with K51S, K92S, D95K
light 2: B1 light with K24R, D32E, E97K
chain 2: B3 chain 2

IC50 [pM] versus human IL-33 mm2 Cys (HEK-Blue SEAP) [6]: 237 pM | IC50 [pM] versus human reduced IL-33 (R&D), Experiment 1 (HEK-Blue SEAP) [7]: ~677 pM | IC50 [pM] versus human reduced IL-33 (R&D), Experiment 2 (HEK-Blue SEAP) [7]: ~1240 pM
B6: IL33-0216 (antibody, human IgG1, kappa, V domains shown)
VH: EVQLVESGGGLVQPGGSLRLSCAASGFTFSSYWMYWVRQAPGKGLEWVAAITPNAGEDYYPESVKGRFTISRDNAKNSLYLQMNSLRAEDTAVYYCARGHYYYTSYSLGYWGQGTLVTVSS
VL: DIQMTQSPSSLSASVGDRVTITCKASQNIDKHLDWYQQKPGKAPKLLIYFTNNLQTGVPSRFSGSGSGTDFTLTISSLQPEDFATYYCFQYNQGWTFGGGTKVEIKR
